Where two headings read alike, the source gives them in different places.
Tests used:
[1] = biological target: Dictyostelium actin filaments (F-actin) (Dictyostelium) (UniProt P07830); assay: steady-state actin critical concentration, calibrated pyrene fluorescence
[2] = biological target: Dictyostelium actin monomer (G-actin) (Dictyostelium) (UniProt P07830); assay: other fluorescence titration
[3] = biological target: Dictyostelium actin monomer (G-actin) (Dictyostelium) (UniProt P07830); assay: other fluorescence titration; remark: listed apart in the source
[4] = biological target: Dictyostelium actin filaments (F-actin) (Dictyostelium) (UniProt P07830); assay: steady-state actin critical concentration, sedimentation
[5] = biological target: Dictyostelium actin filaments (F-actin) (Dictyostelium) (UniProt P07830); assay: steady-state actin critical concentration, uncalibrated pyrene fluorescence
[6] = biological target: Dictyostelium actin monomer (G-actin) (Dictyostelium) (UniProt P07830); assay: other fluorescence titration; remark: listed apart in the source

“Dictyostelium elongation factor 1 alpha (EF1 alpha) (from UniProt P0CT31 1-453) (natural protein)” gave a Kd [1] of 140 nM, a Kd [2] of 3900 nM and a Kd [3] of 700 nM. It also gave a Kd [4] of 400 nM, a Kd [5] of 920 nM and a Kd [6] of 1400 nM.
